Reference: PMC10894068

Biological target: USP37(700-851) (human) (UniProt Q86T82)
Experiment: BLI

Chain of UniProt Q86T82 (Q86T82 700-851): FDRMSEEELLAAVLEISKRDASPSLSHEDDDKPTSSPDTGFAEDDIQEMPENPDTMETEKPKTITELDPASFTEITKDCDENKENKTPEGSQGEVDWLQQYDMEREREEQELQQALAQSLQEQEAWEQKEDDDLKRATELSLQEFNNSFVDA

Row | Kd | Substance
1 | 4.97 µM | K63-diUb containing a native linkage (from UniProt P0CG47 1-76) (complex)
2 | 2.71 µM | K63/K48-triUb-(1,0) (triUb-NC(1,0)) (from UniProt P0CG47 1-75; P0CG47 1-76; P0CG47 1-76) (complex)
3 | 8.89 µM | K11-diUb (from UniProt P0CG47 1-76) (complex)
4 | 3.36 µM | K11/K63-triUb-(1,0) (triUb-NC(1,0)) (from UniProt P0CG47 1-75; P0CG47 1-76; P0CG47 1-76) (complex)

Biological target: UIMC1(76-128) (human) (UniProt Q96RL1)
Chain of UniProt Q96RL1 (Q96RL1 76-128): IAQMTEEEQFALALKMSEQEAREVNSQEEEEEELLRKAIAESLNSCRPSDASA
Experiment: BLI

Row | Kd | Substance
5 | 2.17 µM | K63-diUb containing a native linkage (from UniProt P0CG47 1-76) (complex)
6 | 2.43 µM | K63/K48-triUb-(1,0) (triUb-NC(1,0)) (from UniProt P0CG47 1-75; P0CG47 1-76; P0CG47 1-76) (complex)
7 | 2.92 µM | K11-diUb (from UniProt P0CG47 1-76) (complex)
8 | 1.04 µM | K11/K63-triUb-(1,0) (triUb-NC(1,0)) (from UniProt P0CG47 1-75; P0CG47 1-76; P0CG47 1-76) (complex)

Biological target: AN13A(479-594) (human)
Experiment: BLI

Row | Kd | Substance
9 | 0.25 µM | K63-diUb containing a native linkage (from UniProt P0CG47 1-76) (complex)
10 | 0.74 µM | K63/K48-triUb-(1,0) (triUb-NC(1,0)) (from UniProt P0CG47 1-75; P0CG47 1-76; P0CG47 1-76) (complex)
11 | 1.28 µM | K11-diUb (from UniProt P0CG47 1-76) (complex)
12 | 0.43 µM | K11/K63-triUb-(1,0) (triUb-NC(1,0)) (from UniProt P0CG47 1-75; P0CG47 1-76; P0CG47 1-76) (complex)
13 | 7.83 µM | K11/K48-triUb-(1,0) (triUb-NC(1,0)) (from UniProt P0CG47 1-75; P0CG47 1-76; P0CG47 1-76) (complex)
